Assay results published in patent publication US20260132208A1 (DOMAIN THERAPEUTICS, published 2026).
Values joined by “and” are separate entries in the source; they are usually repeats but may differ in a detail not shown here. Identical values can stand only once.

What was measured:
[1] = target: human CCR8 with a SNAP-tag at the N-terminus (human, UniProt P51685 1-355, SNAP-tag labelled covalently with Lumi4-Terbium); experiment: cell-based or functional assay
human CCR8 [2] = target: T1, human CCR8 (human, UniProt P51685 1-355); experiment: flow cytometry, hCCR8-transfected CHO-K1 cells
T1 construct: also called hCCR8; CC chemokine receptor 8
Experimental: Briefly, 1.10⁵ cells per well in a 96 well plate were incubated with a dilution of unconjugated anti-CCR8 mAb at 10 μg/mL then diluted at 1/3.33, 4 dilution points (during 30 min at 4° C.). In human activated T cells model, prior to mAb incubation, cells were first incubated with 200 nM of hCCL1 (R&D Systems, Minneapolis, MN, USA) or buffer PBS (Invitrogen by Thermofisher Scientific, Illkirch-Graffenstaden, France) supplemented by 2% Fetal Bovine Serum (Invitrogen by Thermofisher Scientific, Illkirch-Graffenstaden, France) and 2 mM EDTA (Invitrogen by Thermofisher Scientific, Illkirch-Graffenstaden, France) during 1 hour at 4° C. To determine EC50 value, 8 concentrations of anti-CCR8 mAb were tested. Unbound antibodies were washed away with PBS (Invitrogen by Thermofisher Scientific, Illkirch-Graffenstaden, France) supplemented by 2% Fetal Bovine Serum (Invitrogen by Thermofisher Scientific, Illkirch-Graffenstaden, France) and 2 mM EDTA (Invitrogen by Thermofisher Scientific, Illkirch-Graffenstaden, France). Subsequently, cells are centrifuged (5 min at 400 g) and bound antibody is detected with F(ab′)2-Goat anti-Mouse IgG (H+L) Cross-Adsorbed Secondary Antibody, Alexa Fluor 488 (dilution 1/500) (Invitrogen by Thermofisher Scientific, Illkirch-Graffenstaden, France) or with F(ab′)₂-Goat anti-Human IgG Fc Secondary Antibody, PE (Invitrogen by Thermofisher Scientific, Illkirch-Graffenstaden, France) (dilution 1/1000) at 4° C. for 30 min. Detection reagent is washed away and cells are centrifuged (5 min at 400 g) and resuspended in 30 μL PBS. Bound detection antibody is quantified on a MacsQuant16 (Miltenyi, Gladbach, Germany) (B1 or B2 channel, 5000 events per acquisition). During the experiment, the respective isotype mAb controls (mouse IgG1, mouse IgG2a, mouse IgG2b, mouse IgG3 or human IgG1) (Biolegend, Amsterdam, The Netherlands) are included to exclude any unspecific binding events. EC50 values were determined via nonlinear fit “log (agonist) vs.response—Variable slope (four parameters)” function of Graphpad prism. EC50 values were not constantly determined in the same experiments.

human CCR8 [3] = target: T1, human CCR8; experiment: cell-based or functional assay
human CCR8 [4] = target: T1, human CCR8; experiment: cell-based or functional assay; remark: listed apart in the source
human CCR8 [5] = target: T1, human CCR8; experiment: flow cytometry, inhibition of hCCL1-AF647 (10 nM) binding to hCCR8-CHO cells
Experimental: The hCCR8 transfected CHO cell line was dispatched at a density of 1.105 per well in a 96-well plate. Cells were incubated for 30 min at 4° C. with or without anti-CCR8 mAb tested at 10 μg/mL then diluted at 1/3. Unbound antibodies were washed away with PBS (Gibco, Villebon-sur-yvette, France) supplemented by 2% Fetal Bovine Serum (Invitrogen by Thermofisher Scientific, Illkirch-Graffenstaden, France) and 2 mM EDTA. […] After washing unbound ligands, CCL1 bound detection is quantified on a MacsQuant16 (Miltenyi, Gladbach, Germany) (R1 channel, 5 000 events per acquisition).
For IC₅₀ determination, a concentration response curve is performed using 8 concentrations of mAb. Curves are fitted and IC₅₀ of CCL1 binding blocking activity is calculated using the sigmoidal dose-response (variable slope) model on GraphPad Prism 9 (GraphPad Software, San Diego, CA, USA).

pm6 = target: T2, pm6 (Y16 and Y17 sulfated; Y15 not sulfated); experiment: ELISA on coated peptide [cont.]
T2 construct: also called sulfated CCR8 N-terminal peptide pm6
Experimental: (§1) The specific binding properties of antibodies were evaluated by ELISA with coated CCR8 related peptides (500 ng/ml) in carbonate/bicarbonate buffer. Different peptides were used as described in Table 1 (see Example 1). Each anti-CCR8 mAb was tested at 1 μg/mL then diluted at 1/10. After an incubation at room temperature during 90 min, unbound mAbs were removed by washings. […] After washings, 3,3′,5,5′-tetramethylbenzidine (TMB) (Interchim, Montluçon, France) was added for 15 min. Then the optical density (OD) was determined by using a multiplate reader (Tecan, Lyon, France) and correlated with mAb reactivity on the panel of coated peptides.

pm8 = target: T3, pm8 (Y15, Y16 and Y17 sulfated); experiment: ELISA on coated peptide [cont.]
T3 construct: also called sulfated CCR8 N-terminal peptide pm8
Experimental: as §1

pm5 = target: T4, pm5 (Y15 and Y17 sulfated; Y16 not sulfated); experiment: ELISA on coated peptide [cont.]
T4 construct: also called sulfated CCR8 N-terminal peptide pm5
Experimental: as §1

pm3 = target: T5, pm3 (Y17 sulfated; Y15 and Y16 not sulfated); experiment: ELISA on coated peptide [cont.]
T5 construct: also called sulfated CCR8 N-terminal peptide pm3
Experimental: as §1

human CCR8 [6] = target: T1, human CCR8; experiment: cell-based or functional assay; remark: listed apart in the source
human CCR8 [7] = target: T1, human CCR8; experiment: cell-based or functional assay; remark: listed apart in the source

T2 sequence (peptide, as listed by the source): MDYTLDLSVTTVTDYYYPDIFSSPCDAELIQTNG
T3 sequence (peptide, as listed by the source): as above
T4 sequence (peptide, as listed by the source): as above
T5 sequence (peptide, as listed by the source): as above

| % hCCR8 internalization with CCL1 300 nM, mAb 1 µg/ml (HTRF) [1] [%] | % hCCR8 internalization with CCL1 300 nM, mAb 10 µg/ml (HTRF) [1] [%] | % positive cells (human CCR8 [2]) [%] | MFI fold change to isotype ctrl (human CCR8 [2]) [fold] | IC50 of CCL1-induced hCCR8 Gi2 signaling (BRET, HEK-293) (human CCR8 [3]) | IC50 of CCL1-induced hCCR8 Gi2 signaling (BRET), pH 6.5 (human CCR8 [4]) | IC50 of CCL1-induced hCCR8 Gi2 signaling (BRET), pH 7.4 (human CCR8 [4]) | IC50 (human CCR8 [5]) | binding result (pm6) | binding result (pm8) | binding result (pm5) | binding result (pm3) | residual hCCL1 (100 nM) Gi2 response, protocol #2, mAb 0.08 µg/mL (human CCR8 [6]) [%] | residual hCCL1 (100 nM) Gi2 response, protocol #2, mAb 0.4 µg/mL (human CCR8 [6]) [%] | residual hCCL1 (100 nM) Gi2 response, protocol #2, mAb 10 µg/mL (human CCR8 [6]) [%] | residual hCCL1 (100 nM) Gi2 response, protocol #3, mAb 0.05 µg/mL (human CCR8 [6]) [%] | residual hCCL1 (100 nM) Gi2 response, protocol #3, mAb 0.5 µg/mL (human CCR8 [6]) [%] | residual hCCL1 (100 nM) Gi2 response, protocol #3, mAb 5 µg/mL (human CCR8 [6]) [%] | extrapolated top plateau of hCCL1 curve with 5 µg/mL mAb, protocol #3 (human CCR8 [7]) | Binder |
| --- | --- | --- | --- | --- | --- | --- | --- | --- | --- | --- | --- | --- | --- | --- | --- | --- | --- | --- | --- |
| 100 | 90 |  |  |  |  |  |  |  |  |  |  |  |  |  |  |  |  |  | Ref #2 (antibody, human IgG1, V domains shown) VH: QVQLVQSGAEVKKPGASVKVSCKASGYTFTSYYMHWVRQAPGQGLEWMGIINPSGGSTSYAQKFQGRVTMTRDTSTSTVYMELSSLRSEDTAVYYCARAVRNRFRFDYWGQGTLVTVSS VL: QSALTQPASVSGSPGQSITISCTGTSSDVGSYNLVSWYQQHPGKAPKLMIYEVSKRPSGVSNRFSGSKSGNTASLTISGLQAEDEADYYCSSYAGSSTFVVFGGGTKLTVL |
|  |  | 83 | 17.6 | 0.01 µg/mL and 0.066 nM | 0.014 µg/ml and 0.095 nM | 0.004 µg/ml and 0.026 nM | 0.28 µg/mL and 1.85 nM | binds | binds | binds | binds | 93 | 89 | 48 | 92 | 68 | 50 | 305000 % of hCCL1 (100 nM) | anti-CCR8 mAb 1-14 (antibody, V domains shown, Murine hybridoma mAb) VH: QVQLVETGGGLVRPGNSLKLSCVTSGFTFSNYRMHWLRQPPGKRLEWIAVIKVKSDNYGANYAESVKGRFTISRDDSKSSVYLQVNRLREEDTATYYCSSPTYPGSSGFAYWGQGTLVTVSA VL: DIQMTQTTSSLSASLGDRVTISCRASQDISNYLNWYQQKPDGTVKLLIYYTSRLHSGVPSRFSGSGSGTDYSLTISNLEQEDIATYFCQQGNKFPPTFGGGTKLEIN |
|  |  | 71.3 | 6.26 | 0.018 µg/mL and 0.117 nM | 0.011 µg/ml and 0.073 nM | 0.007 µg/ml and 0.047 nM | 0.89 µg/mL and 5.7 nM | binds | binds | binds | binds | 73 | 51 | 24 | 69 | 38 | 30 | 526000 % of hCCL1 (100 nM) | anti-CCR8 mAb 1-7 (antibody, V domains shown, Murine hybridoma mAb) VH: QVHLVETGGGLVRPGNSLKLSCVTSGFTLSNYRMHWLRQPPGKRLEWIAVIKVKSDNYGANYAESVKGRFTISRDDAKSSVYLQMNRLREEDTATYYCSRPDGFSPFVYWGQGTLVTVSA VL: DIKMTQSPSSMYASLGERVTITCKASQDINSYLSWFQQKPGKSPKTLIYRANRLVDGVPSRFSGSGSGQDYFLTISSLEYEDMGIYYCLQYGEFPPTFGAGTKLELK |
|  |  | 67.8 | 6.11 | 0.015 µg/mL and 0.099 nM | 0.031 µg/ml and 0.208 nM | 0.017 µg/ml and 0.115 nM | 0.85 µg/mL and 5.72 nM | binds | binds | binds | binds | 99 | 85 | 68 | 86 | 75 | 48 | 805000 % of hCCL1 (100 nM) | anti-CCR8 mAb 1-12 (antibody, V domains shown, Murine hybridoma mAb) VH: EVQLVETGGGLVQPKGSLKLSCAASGFTFNANAMNWVRQAPGKGLEWVARIRSKSNNYATYYADSVKDRFTISRDDSQSMLYLQMNNLKTEDTAMYYCVRGSDNYIFYAMDYWGQGTSVTVSS VL: DIVMTQAAPSVPVTPGESVSISCRSSKSLLHSNGNTYLYWFLQRPGQSPQLLIYRMSNLASGVPDRFSGSGSGTAFTLRISRVEAEDVGVYYCMQHLEYPFTFGGGTKLEIK |
| 95 | 103 |  |  |  |  |  |  |  |  |  |  |  |  |  |  |  |  |  | Ref #3 (antibody, human IgG1, V domains shown) VH: EVQLVESGGGLVQPGGSLKLSCAASGFTFNTYAMNWVRQASGKGLEWVARIRSKANNYATYYADSVKDRFTISRDDSKNTLYLQMNNLKTEDTAVYYCVRDRSRGEDYAMDYWGQGTLVTVSS VL: DIVMTQSPLSLPVTPGEPASISCRSSKSLLHSNANTYLYWFLQKPGQSPQLLIYRMSNLASGVPDRFSGSGSGTAFTLKISRVEAEDVGVYYCMQHLEYPFTFGQGTKLEIK |
|  |  | 64.7 | 5.63 | 0.01 µg/mL and 0.067 nM | 0.019 µg/ml and 0.125 nM | 0.011 µg/ml and 0.075 nM | 0.36 µg/mL and 2.42 nM | binds | binds | binds | binds | 60 | 35 | 21 | 69 | 39 | 38 | 149 % of hCCL1 (100 nM) | anti-CCR8 mAb 1-13 (antibody, V domains shown, Murine hybridoma mAb) VH: EVQLVETGGGLVQPKGSLKLSCAASGFTFNTNAMNWVRQAPGKGLEWVARIRSKSNYYATYYADSVKDRFTISRDDSQSMLYLQMNNLKTEDTAMYYCVRGREMGNYYSMDYWGQGTSVTVSS VL: DIVMTQAAPSVPVTPGESVSISCRSSKSLLHSNGNTYLYWFLQRPGQSPQLLIYRMSNLASGVPDRFSGSGSGTAFTLRISRVEAEDVGVYYCMQHLEYPFTFGSGTKLEIK |
